# According to paper PMC2365708, “Binding of MutS protein to oligonucleotides containing a methylated or an ethylated guanine residue, and correlation with mutation frequency”:
# Residue numbers refer to the chain shown, from its start.
# T1: MutS (Escherichia coli, UniProt P23909 1-853)
# T1 sequence: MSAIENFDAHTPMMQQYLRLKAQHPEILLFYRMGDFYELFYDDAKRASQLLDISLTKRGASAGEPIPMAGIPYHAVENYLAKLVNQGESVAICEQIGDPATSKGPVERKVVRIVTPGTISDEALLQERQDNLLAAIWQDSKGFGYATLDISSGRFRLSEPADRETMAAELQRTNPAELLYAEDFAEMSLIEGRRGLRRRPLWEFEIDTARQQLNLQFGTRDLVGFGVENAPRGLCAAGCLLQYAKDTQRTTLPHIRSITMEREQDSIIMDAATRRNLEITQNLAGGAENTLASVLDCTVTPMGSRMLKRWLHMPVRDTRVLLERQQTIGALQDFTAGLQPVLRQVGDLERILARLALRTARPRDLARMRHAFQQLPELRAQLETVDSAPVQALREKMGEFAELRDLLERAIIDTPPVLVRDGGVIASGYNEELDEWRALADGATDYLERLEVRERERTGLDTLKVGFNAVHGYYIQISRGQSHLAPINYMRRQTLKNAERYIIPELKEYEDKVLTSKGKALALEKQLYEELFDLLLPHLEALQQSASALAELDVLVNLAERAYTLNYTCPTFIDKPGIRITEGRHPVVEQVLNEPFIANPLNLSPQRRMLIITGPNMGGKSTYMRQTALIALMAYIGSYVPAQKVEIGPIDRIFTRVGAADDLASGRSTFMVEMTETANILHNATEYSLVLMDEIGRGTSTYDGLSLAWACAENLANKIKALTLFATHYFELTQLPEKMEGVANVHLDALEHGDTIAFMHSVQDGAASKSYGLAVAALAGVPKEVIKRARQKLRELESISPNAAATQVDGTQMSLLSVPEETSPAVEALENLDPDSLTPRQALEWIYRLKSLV
# B1: G:T duplex (dsDNA)
# DNA 1: GGTCGCTGGGGAATGGGAGTGGCCACGGCG
# DNA 2: CGCCGTGGCCACTCTCATTCCCCAGCGACC
# B2: O6-MeG:C duplex (dsDNA)
# DNA 1: B1 DNA 1
# DNA 2: B1 DNA 2 with T15C
# modifications: O6-methylguanine opposite C
# B3: O6-EtG:T duplex (dsDNA)
# DNA 1: B1 DNA 1
# DNA 2: B1 DNA 2
# modifications: O6-ethylguanine opposite T
# B4: O6-EtG:C duplex (dsDNA)
# DNA 1: B1 DNA 1
# DNA 2: B1 DNA 2 with T15C
# modifications: O6-ethylguanine opposite C
# B5: O6-MeG:T duplex (dsDNA)
# DNA 1: B1 DNA 1
# DNA 2: B1 DNA 2
# modifications: O6-methylguanine opposite T
# Target: T1, MutS
# Assay: EMSA; 5 mM Mg2+; 20 pmol unlabeled GC duplex; 20 mM Tris-HCl pH 7.6, 50 mM KCl, 5 mM MgCl2, 1 mM DTT, 0.05 mg/ml BSA, 37 °C 15 min, 20 μl, 2 pmol labeled duplex, 20 pmol unlabeled GC duplex, 5% native PAGE
# Conditions: protein: recombinant, tags: His6, chain copies: 2, label: 5'-32P (KN-2 or KN-3 strand)
binder,measurement,setting,value
B1,Kd,G:T mismatch,75 nM
B2,Kd,O6-MeG:C pair,220 nM
B3,Kd,O6-EtG:T pair,210 nM
B4,Kd,O6-EtG:C pair,220 nM
B5,Kd,O6-MeG:T pair,120 nM
